Assay results: PMC4852450, “SepG coordinates sporulation-specific cell division and nucleoid organization in Streptomyces coelicolor” (Open Biology, 2016)

How the values were obtained:
FtsZ–mCherry = target: T1, FtsZ–mCherry (S. coelicolor, UniProt P45500 1-399); experiment: FRET or BRET; acceptor photobleaching in living S. coelicolor M145 hyphae; donor eGFP, acceptor mCherry; post-bleach donor intensity relative to the pre-bleach intensity (set to 1); conditions: partners not purified
T1 construct: FtsZ, cell division scaffold protein of Streptomyces coelicolor; The FtsZ–mCherry construct is not described in the main text; source: S. coelicolor M145, expressed in living aerial hyphae
T1 sequence (looked up): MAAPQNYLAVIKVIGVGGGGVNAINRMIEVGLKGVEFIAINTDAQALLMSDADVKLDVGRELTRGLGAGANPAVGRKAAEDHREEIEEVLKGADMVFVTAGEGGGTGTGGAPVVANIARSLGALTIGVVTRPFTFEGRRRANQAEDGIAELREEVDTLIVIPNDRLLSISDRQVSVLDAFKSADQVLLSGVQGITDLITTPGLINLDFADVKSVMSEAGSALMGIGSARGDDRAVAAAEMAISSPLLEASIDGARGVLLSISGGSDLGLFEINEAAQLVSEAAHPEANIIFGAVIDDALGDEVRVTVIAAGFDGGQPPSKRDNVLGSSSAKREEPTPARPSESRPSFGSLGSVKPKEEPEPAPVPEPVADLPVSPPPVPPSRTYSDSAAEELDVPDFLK

SepG–mCherry = target: T2, SepG–mCherry (S. coelicolor, UniProt Q9S2X3 1-94); experiment: as above; conditions: partners not purified
T2 construct: SepG (YlmG), SCO2078, 94 aa membrane protein of Streptomyces coelicolor; called full-length sepG in the methods; egfp of pGWS755 replaced by the gene for mCherry; also called YlmG; SCO2078; source: S. coelicolor M145, expressed from the ftsZ promoter region (pGWS791), in living aerial hyphae; not shown: mCherry, C-terminal, kept
T2 sequence (looked up): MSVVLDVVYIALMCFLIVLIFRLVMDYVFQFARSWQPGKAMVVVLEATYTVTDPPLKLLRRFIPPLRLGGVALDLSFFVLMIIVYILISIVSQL

donor fluorescence intensity after acceptor photobleaching, relative to before (FRET) (FtsZ–mCherry): 1.08
donor fluorescence intensity after acceptor photobleaching, relative to before (FRET) (SepG–mCherry): 1.05
B1: SsgB–eGFP (natural protein, S. coelicolor, UniProt Q9L268 1-137, looked up)
chain: MNTTVSCELHLRLVVSSESSLPVPAGLRYDTADPYAVHATFHTGAEETVEWVFARDLLAEGLHRPTGTGDVRVWPSRSHGQGVVCIALSSPEGEALLEAPARALESFLKRTDAAVPPGTEHRHFDLDQELSHILAES
notes: SsgB, SCO1541, FtsZ-recruiting cell division protein of Streptomyces coelicolor; also called SCO1541; source: S. coelicolor M145, expressed in living aerial hyphae
